“And” between values parts separate entries of the source, which are not always exact repeats. Equal values may be shown once. Where no end group is shown, it is not given here.
How the values were obtained:
[1] = molecular target: human ABCA1 transporter (ATP-binding cassette transporter A1) (human) (UniProt O95477); test: 125I-L-37pA (1 µg/ml, 1 hour, 4° C.) bound to ABCA1-transfected HeLa cells, no competitor
[2] = molecular target: human ABCA1 transporter (ATP-binding cassette transporter A1) (human) (UniProt O95477); test: two-step sequential competition on ABCA1-transfected HeLa cells; competitor at 8 µM, tracer 125I-L-37pA
[3] = molecular target: human ABCA1 transporter (ATP-binding cassette transporter A1) (human) (UniProt O95477); test: cell-based or functional assay

UniProt O95477, sequence (O95477 whole entry): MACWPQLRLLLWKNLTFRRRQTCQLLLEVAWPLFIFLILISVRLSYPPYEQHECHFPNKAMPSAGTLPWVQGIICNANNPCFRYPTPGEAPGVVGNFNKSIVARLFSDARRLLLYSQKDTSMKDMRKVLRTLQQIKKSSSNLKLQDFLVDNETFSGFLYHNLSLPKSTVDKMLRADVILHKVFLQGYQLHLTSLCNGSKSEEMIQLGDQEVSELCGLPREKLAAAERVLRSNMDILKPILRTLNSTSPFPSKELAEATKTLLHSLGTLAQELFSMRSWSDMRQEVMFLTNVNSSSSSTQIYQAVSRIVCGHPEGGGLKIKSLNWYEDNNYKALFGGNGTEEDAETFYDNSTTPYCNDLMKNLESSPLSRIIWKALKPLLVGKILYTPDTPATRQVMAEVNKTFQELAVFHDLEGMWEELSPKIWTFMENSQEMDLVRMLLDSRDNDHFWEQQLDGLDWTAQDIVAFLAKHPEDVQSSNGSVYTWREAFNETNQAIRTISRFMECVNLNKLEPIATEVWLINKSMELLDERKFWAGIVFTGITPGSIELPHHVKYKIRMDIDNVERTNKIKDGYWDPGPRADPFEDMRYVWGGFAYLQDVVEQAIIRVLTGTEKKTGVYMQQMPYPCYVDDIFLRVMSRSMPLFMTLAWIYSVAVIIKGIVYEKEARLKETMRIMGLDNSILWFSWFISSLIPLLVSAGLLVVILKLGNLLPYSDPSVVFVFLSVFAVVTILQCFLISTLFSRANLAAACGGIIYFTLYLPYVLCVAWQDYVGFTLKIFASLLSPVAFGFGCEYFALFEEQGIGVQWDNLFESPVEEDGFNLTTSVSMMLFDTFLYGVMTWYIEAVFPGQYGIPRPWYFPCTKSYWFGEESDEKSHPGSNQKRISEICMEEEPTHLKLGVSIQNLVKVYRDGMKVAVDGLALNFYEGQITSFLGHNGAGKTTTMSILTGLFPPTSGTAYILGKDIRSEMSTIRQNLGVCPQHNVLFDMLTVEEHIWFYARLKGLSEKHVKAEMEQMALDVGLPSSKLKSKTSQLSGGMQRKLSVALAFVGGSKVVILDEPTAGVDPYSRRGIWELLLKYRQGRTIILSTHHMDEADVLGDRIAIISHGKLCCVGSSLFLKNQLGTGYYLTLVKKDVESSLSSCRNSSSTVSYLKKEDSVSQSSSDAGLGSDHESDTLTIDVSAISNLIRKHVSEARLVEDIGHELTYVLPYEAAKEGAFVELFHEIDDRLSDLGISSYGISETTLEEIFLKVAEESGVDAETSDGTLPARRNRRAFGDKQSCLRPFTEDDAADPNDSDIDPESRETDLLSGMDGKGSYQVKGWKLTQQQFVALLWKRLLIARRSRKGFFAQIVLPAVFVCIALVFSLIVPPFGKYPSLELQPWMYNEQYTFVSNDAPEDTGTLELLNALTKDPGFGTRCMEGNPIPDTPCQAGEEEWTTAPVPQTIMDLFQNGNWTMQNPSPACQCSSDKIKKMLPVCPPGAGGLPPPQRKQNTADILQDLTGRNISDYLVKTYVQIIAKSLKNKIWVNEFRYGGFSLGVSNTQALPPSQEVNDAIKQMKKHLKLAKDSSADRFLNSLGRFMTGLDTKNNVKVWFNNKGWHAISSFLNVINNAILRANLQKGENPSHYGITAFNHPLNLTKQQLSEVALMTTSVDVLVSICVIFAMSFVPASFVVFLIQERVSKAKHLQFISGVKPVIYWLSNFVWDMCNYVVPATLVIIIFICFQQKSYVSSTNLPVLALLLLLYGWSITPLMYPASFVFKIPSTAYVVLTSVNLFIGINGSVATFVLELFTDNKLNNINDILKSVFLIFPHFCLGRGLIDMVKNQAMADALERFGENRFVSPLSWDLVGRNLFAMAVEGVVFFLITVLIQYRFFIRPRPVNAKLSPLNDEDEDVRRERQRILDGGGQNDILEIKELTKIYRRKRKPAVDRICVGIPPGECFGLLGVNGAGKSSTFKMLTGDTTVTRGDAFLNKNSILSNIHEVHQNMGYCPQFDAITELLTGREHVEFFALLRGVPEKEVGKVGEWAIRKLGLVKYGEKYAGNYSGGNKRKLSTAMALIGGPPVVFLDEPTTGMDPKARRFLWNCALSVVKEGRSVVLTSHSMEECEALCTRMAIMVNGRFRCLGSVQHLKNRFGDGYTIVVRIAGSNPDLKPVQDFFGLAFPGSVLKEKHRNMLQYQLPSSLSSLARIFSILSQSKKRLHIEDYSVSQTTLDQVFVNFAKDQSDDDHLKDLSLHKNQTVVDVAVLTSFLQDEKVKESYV

DWLKAFYDKVAEKLKEAFPDWLKAFYDKVAEKLKEAF (also: tracer form 125I-labelled with iodine monochloride) [L-37pA peptide]
cell-bound radiolabeled peptide in the absence of a competitor (pmol/mg cell protein) [1]: 35 | percent of labeled L-37pA binding blocked [2]: 40% | cholesterol and phospholipid efflux, ABCA1 cells against control cells [3]: 2 fold and 4 fold | concentration at which lipid efflux begins to show saturation [3]: 2 µM
